According to patent US20240398942A1 (CHIA TAI TIANQING PHARMACEUTICAL GROUP, published 2024):
Residue numbers refer to the chain shown, from its start. Like-named read-outs stand apart in the source and are kept apart here.

B1: chimeric antibody 1D1 (antibody, human IgG1, kappa, V domains shown)
VH: EVQLQQSGPELVKPGASVKMSCKASGYTFTDYVMHWVKQKPGQGLECIGYINPYNDGTTYNEKFKGKATLTSDKSSNAAYLELSSLTSEDSAVYYCARGFLRESWFGYWGQGTLVTVSA
VL: DVLLTQTPLSLPVSLGDQASISCRSSQNIVHSNGNTYLDWYLQKPGQSPKLLIYKVSNRFSGVPDRFSGSGSGTDFTLKISRVEAEDLGVYYCFQGSHVPPTFGGGTKLELKR
notes: Mouse variable regions on human IgG1 / kappa constant regions
B2: mouse anti-CD40 monoclonal antibody 1D1 (parent of chimeric antibody 1D1) (antibody, V domains shown)
VH: B1 VH
VL: DVLLTQTPLSLPVSLGDQASISCRSSQNIVHSNGNTYLDWYLQKPGQSPKLLIYKVSNRFSGVPDRFSGSGSGTDFTLKISRVEAEDLGVYYCFQGSHVPPTFGGGTKLELK
notes: Parent mouse antibody of chimeric 1D1; also called parent antibody
B3: humanized antibody huC1H1-V3 (antibody, human IgG2, kappa, V domains shown)
VH: EVQLVESGGGLVKPGGSLRLSCAASGFTFSNYGISWVRQAPGKGLEWVASISSGGDNTYYPDNVKGRFTISRDNAKNSLYLQMNSLRAEDTAVYYCARAGEKAMDYWGQGTLVTVSS
VL: EIVLTQSPATLSLSPGERATLSCRASQTINNNLHWYQQKPGQAPRLLIYYASQSISGIPARFSGSGSGTDFTLTISSLEPEDFAVYYCQQFSSWPLTFGGGTKVEIKR
notes: Human IgG2 / kappa; Tested as cell supernatant in the Octet assay
B4: humanized antibody huC1H1-V4 (antibody, human IgG2, kappa, V domains shown)
VH: B3 VH with A49S
VL: B3 VL
notes: as for B3
B5: chimeric antibody 1A3 (antibody, human IgG1, kappa, V domains shown)
VH: EVQLQQSGPELVKTGASVKISCKASGYSFIGYYLHWVKQSLGKGLEWIGYISCHDGTIIYNQKFKGKATFTLDTSSSTAYMQFSSLTSEDSAVYFCARFLNYYGSNYAMDYWGQGTSVTVSS
VL: DIVMTQSHKFMSTSVGDRVSITCKASQDVGPAVAWYQQKPGQSPKLLIYWASTRHTGVPDRFTGSGYGTDFTLTINNVQSEDLADYFCQQYFTYPLTFGGGTKLEIKR
notes: as for B1
B6: mouse anti-CD40 monoclonal antibody 1A3 (parent of chimeric antibody 1A3) (antibody, V domains shown)
VH: B5 VH
VL: DIVMTQSHKFMSTSVGDRVSITCKASQDVGPAVAWYQQKPGQSPKLLIYWASTRHTGVPDRFTGSGYGTDFTLTINNVQSEDLADYFCQQYFTYPLTFGGGTKLEIK
notes: Parent mouse antibody of chimeric 1A3; also called parent antibody

Key:
human CD40-Fc protein [1] = target: T1, human CD40-Fc protein (human, biotinylated (sites not given) in the capture ELISA and the benchmark blocking ELISA; not biotinylated in the ligand blocking ELISA); assay: capture ELISA: antibody captured on coated goat anti-human IgG F(ab')2, biotinylated human CD40-Fc 1.15 nM, streptavidin-HRP, OD(450-630)
T1 construct: also called biotinylated human CD40-Fc
Description: (§1) The plate was washed once with a washing buffer (PBS+0.05% v/v of Tween-20, PBST) and then blocked with 200 μL/well blocking buffer (PBST containing 5% w/v of skim milk) for 2 h at 37° C. The plate was washed 4 times, and the anti-CD40 antibody of the present application, BM1, BM2, and a negative control hIgG (human immunoglobulin for intravenous injection (pH 4), Hualan Biological Engineering Inc.) serially 5-fold diluted from 66.7 nM in a PBST containing 2.5% w/v of skim milk was added at 100 μL per well. The plate was incubated for 40 min at 37° C. and washed 4 times. A biotinylated human CD40-Fc protein (amino acid residues 21-193 of SEQ ID NO: 30 linked to the N terminus of amino acid residues 99-330 of SEQ ID NO: 28, dissolved in PBST containing 2.5% w/v of skim milk at a concentration of 1.15 nM) was added at 100 μL/well to a 96-well plate coated with the anti-CD40 antibody. The plate was incubated at 37° C. for 40 min and washed 4 times. An HRP-labeled streptavidin (diluted at 1:10000 in PBST, Jackson Immuno Research, Cat. No. 016-030-084) was added at 100 μL/well, and the plate was incubated at 37° C. for another 40 min. After the last wash, 100 μL/well of ELISA substrate TMB (Innoreagents, Cat. No. TMB-S-002) was added and the plate was incubated at room temperature. After 3-10 min, the reaction was stopped by adding 1 M H₂SO₄ at 50 µL/well, and the absorbance of each well was read on a microplate reader using the dual wavelength mode (TMB detection wavelength: 450 nm, reference wavelength: 630 nm). Curves of OD(450-630) values vs. antibody concentration were plotted. Data were analyzed using Graphpad Prism software, and EC₅₀ values were obtained.

[2] = target: T2, recombinant human CD40-his (Acro biosystems, Cat. No. CD0-H5228) (human, UniProt P25942 21-193); assay: BLI (Octet RED 96), antibody captured from cell supernatant on AHC sensor, human CD40-his as analyte, 1:1 fit
T2 construct: Bought protein; also called human CD40-his protein; not shown: His tag
Description: After six days of culture in a shake flask, the cell supernatant containing the humanized antibodies huC1H1-V1 to huC1H1-V4 was harvested and the binding affinity of the antibodies to human CD40 was determined on an Octet system (Fortebio, Octet RED 96) according to the following procedures. Briefly, an anti-human IgG Fc capture (AHC) biosensor (from ForteBio) was pre-soaked in a 10 mM glycine solution (pH 1.5) for 3 s, and then soaked in a running buffer (PBST containing 0.5% w/v of BSA) for 3 s. The pre-soaking and soaking procedures were repeated 3 times. Then, the sensor was soaked in the cell supernatant containing the humanized anti-CD40 antibody, chimeric antibody C1H1 dissolved in HBS-EP⁺ buffer at a concentration of 5 μg/mL, or the benchmark dissolved in HBS-EP⁺ buffer at a concentration of 5 μg/mL for 120 s, and then soaked in the running buffer for 5 min. The new baseline was run in the running buffer for 180 s. The sensor was then soaked for 120 s in human CD40-his protein (Acro biosystems, Cat. No. CD0-H5228) 2-fold serially diluted from 40 nM in the running buffer and for 10 min in the running buffer […]. Finally, the sensor was pre-soaked in a 10 mM glycine solution (pH 1.5) for 3 s, and then soaked in the running buffer for 3 s. The pre-soaking and soaking procedures were repeated 3 times. The association and dissociation curves were fitted to a 1:1 Langmuir binding model using ForteBio Data Analysis 8.1.

human CD40-Fc protein [3] = target: T1, human CD40-Fc protein; assay: capture ELISA: antibody captured on coated goat anti-human IgG F(ab')2, biotinylated human CD40-Fc 1.15 nM, streptavidin-HRP, OD(450-630); remark: listed apart in the source
Description: as §1

T2 sequence (P25942 21-193 limits assumed): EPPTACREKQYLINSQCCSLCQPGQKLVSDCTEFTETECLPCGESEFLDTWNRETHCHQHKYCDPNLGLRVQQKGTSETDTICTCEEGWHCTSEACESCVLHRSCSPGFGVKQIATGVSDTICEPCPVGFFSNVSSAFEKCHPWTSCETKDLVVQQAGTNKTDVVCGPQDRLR
T1 sequence (chain, as listed by the source limits assumed): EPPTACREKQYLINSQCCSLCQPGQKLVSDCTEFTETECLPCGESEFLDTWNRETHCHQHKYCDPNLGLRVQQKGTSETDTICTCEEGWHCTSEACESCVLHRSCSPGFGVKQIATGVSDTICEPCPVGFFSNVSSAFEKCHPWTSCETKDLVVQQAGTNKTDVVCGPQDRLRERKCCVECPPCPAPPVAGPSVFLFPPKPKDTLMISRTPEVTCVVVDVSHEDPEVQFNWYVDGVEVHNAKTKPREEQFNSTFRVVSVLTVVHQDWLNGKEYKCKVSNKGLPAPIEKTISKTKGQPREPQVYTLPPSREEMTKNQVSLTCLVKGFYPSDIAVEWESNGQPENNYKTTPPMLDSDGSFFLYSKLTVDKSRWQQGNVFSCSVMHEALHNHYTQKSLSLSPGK

| Binder | EC50 (human CD40-Fc protein [1]) | Kd [2] | koff [2] | kon [2] | EC50 (human CD40-Fc protein [3]) |
| --- | --- | --- | --- | --- | --- |
| B1 | 15 nM | – | – | – | – |
| B2 | 8.7 nM | – | – | – | – |
| B3 | – | 5.41 nM | 0.00283 s⁻¹ | 523000 M⁻¹ s⁻¹ | – |
| B4 | – | 8.66 nM | 0.00367 s⁻¹ | 424000 M⁻¹ s⁻¹ | – |
| B5 | – | – | – | – | 1.33 nM |
| B6 | – | – | – | – | 0.592 nM |
